According to the RNAGym collection of RNA variant scans (doi:10.7554/elife.80360):

B1: Twister Ribozyme (parent)
chain: AACACUGCCAAUGCCGGUCCCAAGCCCGGAUAAAAGUGGAGGGGGCGG

Variants of: B1
Assay: self-cleavage, relative activity (ratio to wild type); higher = more cleavage; co-transcriptional

Variant | self-cleavage
G16U U31C | 0.725
G16U U31A | 1.05
G17C A40G | 0.0717
G17A G42U | 0.135
G17A G42C | 0.192
G17A U31G | 0.706
G17C C25G | 0.0833
G17C G29C | 0.0728
G16U G42C | 0.25
G17A A33U | 0.614
G17A A33C | 0.384
G16U U18C | 0.351
G16C U37G | 0.134
G16U G47C | 0.426
G17C C27A | 0.0647
G17C G44U | 0.124
G17A C20G | 0.0402
G17A C20A | 0.0884
G17A G43A | 0.156
G17C A23U | 0.0824
G17C A23C | 0.092
G17C A23G | 0.0841
G16U C27U | 1.16
G16U C27G | 0.941

Variant | self-cleavage
G17A A23U | 0.28
G17A A23G | 0.0743
G17A A23C | 0.0909
G17C A30U | 0.143
G17C A30C | 0.101
G17C A30G | 0.0984
G17A | 0.783
G17C | 0.153
G17A G36U | 0.108
G17A G36A | 0.141
G17A G36C | 0.118
G17C A32G | 0.129
G17C A32C | 0.0792
G16U A23C | 0.115
G16U A23G | 0.0652
G17C G36C | 0.0812
G17C G36U | 0.0484
G17A C46G | 0.592
G17A C46U | 0.774
G17A C46A | 0.322
G17C A33C | 0.0741
G16U A30G | 0.761
G17A U37A | 0.207
G17A G44U | 0.704

Variant | self-cleavage
G17A U18A | 0.18
G17A U18C | 0.221
G17A U18G | 0.123
G17A G41U | 0.169
G17A G41A | 0.148
G17A C27A | 0.221
G17C A35G | 0.0629
G17C A35C | 0.0982
G16U C19U | 0.697
G16U C19A | 0.284
G16U C19G | 0.342
G16U C46U | 1.02
G16U C46A | 0.662
G16U G38A | 0.935
G16U G38C | 1.02
G17C C20U | 0.0836
G17C C20A | 0.0695
G16C G48C | 0.709
G16C G48U | 0.414
G16C G48A | 0.473
G17A C26U | 0.923
G17C U18G | 0.0748
G17C U18A | 0.0862
G17C A22C | 0.123

Variant | self-cleavage
G17C A22U | 0.0369
G17C U37C | 0.0657
G17C U37A | 0.0865
G17C G41A | 0.0738
G17C G41U | 0.0841
G17C G41C | 0.104
G16U G48U | 0.843
G16U G48A | 0.898
G16U G48C | 1.06
G16U G17A | 0.0957
G16U G17U | 0.231
G17A C21A | 0.101
G17A C21U | 0.0984
G16U C25U | 0.809
G16U G39C | 0.173
G16U A35C | 0.961
G16U A35U | 0.948
G16U A35G | 0.765
G17A G47A | 0.297
G17A G47U | 0.489
G17A G47C | 0.224
G17C G42C | 0.11
G17C G42A | 0.0674
G16U A40U | 0.137

Variant | self-cleavage
G16U A40C | 0.156
G17A G48U | 0.603
G17A G48C | 0.724
G17A G39A | 0.153
G17C C46U | 0.144
G17C C46G | 0.139
G17A A34C | 0.0806
G17A A35G | 0.262
G17A A35C | 0.637
G17A G45U | 0.147
G17A G45A | 0.386
G16U G41C | 0.212
G16U G41U | 0.35
G16U G45A | 0.608
G16C U31A | 0.657
G16C U31C | 0.429
G17C G45C | 0.0995
G17C G45U | 0.107
G17C G43U | 0.0878
G17C G43A | 0.0872
G16U C26A | 0.45
G16U C26U | 0.15
G16U C26G | 0.136
G16U G36C | 0.156

Variant | self-cleavage
G17C C26G | 0.446
G16U A33U | 0.88
G16U A33C | 0.66
G16U A33G | 0.597
G16C U18G | 0.116
G17A A32G | 0.6
G17A A32C | 0.303
G17A A32U | 0.476
G17C G39U | 0.0818
G17C G39C | 0.0888
G17C G47U | 0.0863
G17A G38A | 0.498
G17A G29C | 0.222
G17A G29U | 0.336
G17A G29A | 0.308
G16U A32C | 1.1
G17C U31C | 0.115
G17C U31G | 0.139
G16U C20U | 0.797
G16U C20G | 0.098
G16U C20A | 0.109
G17A G24U | 0.0891
G17A G24C | 0.128
G16U G28U | 1.07

Variant | self-cleavage
G16U G44A | 1.01
G16U G44U | 1.14
G16U G44C | 1.05
G16U U37A | 0.436
G16U U37G | 0.409
G16U G29U | 0.87
G16U G24C | 0.118
G16U A34C | 0.111
G16U A34G | 0.396
G16U A34U | 0.577
G17A A30C | 0.275
G17A G28A | 0.296
G17A G28C | 0.393
G17C A34C | 0.0523
G17C G48A | 0.133
G17C G48U | 0.163
G17C C21U | 0.0868
G17C C21G | 0.0972
G17A C19U | 0.281
G17A C19A | 0.104
G17A C19G | 0.14
G17C G38A | 0.0789
G17C G38C | 0.054
